From the supplement of paper PMC10724198
± gives the standard deviation of the averaged measurements.

What was measured:
Saccharomyces cerevisiae [1] = assay: protein stability index of tFT-peptide fusion (C-terminal peptide) (PSI (0-1 scale)); higher = more stable (slower turnover)
Method: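 MPS profiling in S. cerevisiae of the tFT-X12 degron library: putative degron peptides plus stable controls, 12 aa, fused to the C-terminus of a sfGFP-mCherry timer. Cells are FACS-sorted into 8 mCherry/sfGFP bins and deep-sequenced. PSI runs from 0 (unstable) to 1 (stable). Backgrounds are wild type, das1Δ and doa10Δ at 30 °C, and wild type, das1Δ, cdc34-1 and cdc53-1 at 37 °C; 2-3 technical replicates each.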

Saccharomyces cerevisiae [2] = assay: as above; conditions: genetic background: wild type; temperature: 30 C
[3] = genetic background: cdc34-1, temperature: 37 C
[4] = genetic background: cdc53-1, temperature: 37 C
[5] = genetic background: das1 deletion, temperature: 30 C
[6] = genetic background: das1 deletion, temperature: 37 C
[7] = genetic background: doa10 deletion, temperature: 30 C
[8] = genetic background: wild type, temperature: 30 C
[9] = genetic background: wild type, temperature: 37 C
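Also: PSI is a weighted mean of sequencing reads over stability bins, variants kept only with over 10 reads, mCherry proximal and sfGFP distal, peptide attached via GGGS linker.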

Row | Sequence | protein stability index (Saccharomyces cerevisiae [1]; [3]) | protein stability index (Saccharomyces cerevisiae [1]; [4]) | protein stability index (Saccharomyces cerevisiae [1]; [5]) | protein stability index (Saccharomyces cerevisiae [1]; [6]) | protein stability index (Saccharomyces cerevisiae [1]; [7]) | protein stability index (Saccharomyces cerevisiae [1]; [8]) | protein stability index (Saccharomyces cerevisiae [1]; [9]) | protein stability index (Saccharomyces cerevisiae [2])
1 | CRFYIRITRRYS | 0.491 ± 0.017 | 0.576 ± 0.024 | 0.541 ± 0.041 | 0.584 ± 0.032 | 0.156 ± 0.025 | 0.132 ± 0.033 | 0.255 ± 0.031 | 0.21 ± 0.025
2 | FLSRLVGFYFVV | 0.606 ± 0.018 | 0.69 ± 0.0093 | 0.587 ± 0.026 | 0.733 ± 0.022 | 0.313 ± 0.006 | 0.312 ± 0.014 | 0.463 ± 0.014 | 0.361 ± 0.021
3 | SLRICACMTVSW | 0.3 ± 0.0079 | 0.373 ± 0.013 | 0.404 ± 0.086 | 0.335 ± 0.0069 | 0.366 ± 0.0045 | 0.353 ± 0.012 | 0.29 ± 0.013 | 0.353 ± 0.005
4 | FCLLRYPFVGVL | 0.625 ± 0.047 | 0.683 ± 0.025 | 0.554 ± 0.022 | 0.677 ± 0.025 | 0.272 ± 0.0032 | 0.318 ± 0.0089 | 0.514 ± 0.0069 | 0.415 ± 0.013
5 | FGLVAYPLWYIS | 0.504 ± 0.04 | 0.765 ± 0.0058 | 0.668 ± 0.014 | 0.777 ± 0.0099 | 0.0782 ± 0.031 | 0.0991 ± 0.0037 | 0.105 ± 0.029 | 0.18 ± 0.013
6 | SVFFRPVLICCA | 0.0234 ± 0.00059 | 0.0313 ± 0.0091 | 0.0774 ± 0.01 | 0.0628 ± 0.0047 | 0.0558 ± 0.0082 | 0.0558 ± 0.013 | 0.048 ± 0.0039 | 0.101 ± 0.037
7 | GGGSASGWRAAA | 0.665 ± 0.0097 | 0.735 ± 0.015 | 0.633 ± 0.0096 | 0.716 ± 0.027 | 0.344 ± 0.0043 | 0.39 ± 0.022 | 0.639 ± 0.0072 | 0.48 ± 0.025
8 | PVLSLPPLSSPP | 0.682 ± 0.032 | 0.7318 ± 0.0057 | 0.682 ± 0.0089 | 0.7244 ± 0.0058 | 0.691 ± 0.034 | 0.691 ± 0.02 | 0.7044 ± 0.0064 | 0.7068 ± 0.0043
9 | CRLLVFGLCVGA | 0.292 ± 0.012 | 0.332 ± 0.0083 | 0.228 ± 0.046 | 0.419 ± 0.0084 | 0.189 ± 0.0062 | 0.237 ± 0.022 | 0.39 ± 0.0056 | 0.342 ± 0.014
10 | RWGLCFVHVTMF | 0.0369 ± 0.011 | 0.0963 ± 0.011 | 0.149 ± 0.046 | 0.215 ± 0.015 | 0.115 ± 0.01 | 0.106 ± 0.039 | 0.152 ± 0.014 | 0.173 ± 0.011
11 | VCFAWWGARCVA | 0.601 ± 0.01 | 0.619 ± 0.0063 | 0.468 ± 0.026 | 0.6475 ± 0.0032 | 0.304 ± 0.024 | 0.357 ± 0.028 | 0.534 ± 0.029 | 0.477 ± 0.023
12 | KCWSGTVMVRLG | 0.675 ± 0.062 | 0.72 ± 0.017 | 0.596 ± 0.013 | 0.723 ± 0.032 | 0.164 ± 0.0099 | 0.191 ± 0.036 | 0.4516 ± 0.0042 | 0.34 ± 0.0068
13 | GVFISFFFVFRF | 0.154 ± 0.0055 | 0.173 ± 0.037 | 0.269 ± 0.035 | 0.373 ± 0.013 | 0.354 ± 0.017 | 0.237 ± 0.025 | 0.309 ± 0.033 | 0.308 ± 0.013
14 | RGLLLKILIASG | 0.376 ± 0.029 | 0.463 ± 0.034 | 0.305 ± 0.019 | 0.48 ± 0.0095 | 0.188 ± 0.012 | 0.213 ± 0.026 | 0.382 ± 0.0086 | 0.237 ± 0.081
15 | SSGAVGLVIVVC | 0.113 ± 0.028 | 0.185 ± 0.01 | 0.214 ± 0.049 | 0.309 ± 0.0093 | 0.155 ± 0.018 | 0.205 ± 0.023 | 0.247 ± 0.0078 | 0.276 ± 0.014
16 | YVASSWRHCFII | 0.5016 ± 0.0016 | 0.657 ± 0.039 | 0.658 ± 0.022 | 0.724 ± 0.039 | 0.145 ± 0.012 | 0.152 ± 0.014 | 0.269 ± 0.023 | 0.221 ± 0.039
17 | VGCMVVIWVLWG | 0.153 ± 0.0096 | 0.225 ± 0.025 | 0.19 ± 0.034 | 0.313 ± 0.013 | 0.145 ± 0.001 | 0.18 ± 0.026 | 0.278 ± 0.025 | 0.325 ± 0.043
18 | YLAGPLARLRKF | 0.68 ± 0.046 | 0.7579 ± 0.0021 | 0.752 ± 0.027 | 0.738 ± 0.0093 | 0.716 ± 0.037 | 0.749 ± 0.041 | 0.735 ± 0.013 | 0.751 ± 0.037
19 | RFFFSSFPLLIS | 0.327 ± 0.049 | 0.2628 ± 0.0026 | 0.349 ± 0.047 | 0.471 ± 0.014 | 0.207 ± 0.0091 | 0.199 ± 0.025 | 0.307 ± 0.016 | 0.282 ± 0.013
20 | KHKIIGKYQRQI | 0.704 ± 0.13 | 0.751 ± 0.02 | 0.629 ± 0.033 | 0.7236 ± 0.0012 | 0.319 ± 0.017 | 0.338 ± 0.017 | 0.576 ± 0.015 | 0.46 ± 0.021
